Assay: soluble on expression in E. coli; label from the status in PepcDB or PDB records

Soluble on expression in E. coli, not soluble:
MGSDKIHHHHHHMFNSEIKEKYLDTLSEGMVMQMRPIFAKAEITETLYNKDIYDFTSMQILELIRSFDQTTIGSVRRTLALLSLYIDWAISYKLSKGLTNLARTISEEELYECLGDKKLYITYSELEEMENQLVNYQSKAVLRLLFEEVSGLAHSELLSLTKKQVEDAMLNGNVLTLYDSKHGERKLKVSSECLVIALNAAQETKYKLKNGKAKGQTKEVFLVENDYVVKTKRTSNKGDGQASKFVITNLITDISEFFKINFLTPNTIVRSGHLYRAYQLYKEKGVIDNSVRYQIIDDFNLRVKSKYRAVYSMQDYINEEEVNKYYAEELGLKETTI
MTQHSRDTPQFYLTAPSPCPYLPGRHERKVFTHLVGNKAGELNDLLTHGGFRRSQSIAYRPACDQCRACVSVRVIANEFKPSRNQRKLLARNADIVGEQRNPVPTSEQYSVFRAYLDQRHRYGGMADMTVLDYAMMVEDSHVQTRMIEYRKRTPDTGITGRGGELIAAALTDVLGDGLSMVYSFYEPNEQHRSLGTFMILDHIARARRLGLPYVYLGYWIEGSKKMDYKGRYLPQQRLAPSGWLRIDASGEMQPEPQDLEHHHHHH
MPAGANSRTPATDFVQDYAAKRQAQMERARQLREDRLQQQQQQRQSSPKTSGGGNAYNSSPTYTAVPSASGGGTATAAPTSRQPPPPSLNVPRSRHVTPGHDSADSGSSPGKCGDGCVLYIKEQDFKQATQAGIITPDQARQLWAMLSNQIIRVCSPSAHANAVSVSSLLALSNNSYNSSGWAAGGPQSTGGSEFGASISLESLRTSIAYFKREQQRLQQQGGGGAAGAAHGSNAQGRHPLSSSPPALSNTVGQPLSQSRGLPQRQLQYDGNANSDYCRNDGAANDNEQRALGAPMPLRGSGGSGGGGRGGRPAWNSDVEVRHEDDYDDDRNRHAPSSMSTMNSGAAALKKPRTGRTNTVRPAAKGPAASSSPAAGASGVLGTSAQGRGYGSDNEEAGNNAYMPQQPSSAVPRGAKAGGSGAASRRPPASRPTAPPPSSGAPVNLDDVPVGGGGGGGGGMNDWANAYPPGMVPPTSTGGNDAIAAEAAAAAQEPMQECRTCGRRFRISVVMRHEALCRNQANKPRKVFNMREQRLDGVEGIKEVQRTAARSGGGGGGRGAGGGGGRGGGADAAAGAAKGKLPKWKVQHEQFQAAMRAVRQQKEAGGGFGSGRMAPPPAPIPEEYDDRVPCPHCGRKFAQDVAARHIPKCATTIAKPKGIRPIRR
EKMTRDEIEYMLTNSEETLDADEIEMLQGVFSLDELMAREVMVPRTDAFMVDINDDSSDIIQTILNERFSRIPVYDDDKDKIIGIIHTKNLLNAGFKEGFDHINLRRILQEPLFVPETIVVNDLLTALKNTQNQMAILLDEYGGVAGLVTLEDLLEEIVGEIDDETDKTAISVREIADNTYIVLGTM
MGSDKIHHHHHHMLSDITVRYKLNNSIKDSRFETEHLAKYHLSFQVNFELFRICIVDGDSNRCLFLEDYTLADIYTTNDLLEQLDILFEDHILIKAGFWKSITVGFKNTQFSLIPEALFEKDYLKEYLTLNTTLDREPDEEYHFYKQRQTEAVNVFATNQRLTSWFNKTYPLKQVRYVHHTASMIEGIMLQKDKNAAEKSVFIQVEQYFLTIIVKQGKKLIFCNSFTFNTSEDFVYFILFVFDQLELNPEKCPVVVFGEITHDSESFSKLYKYIRHLTFGSKPEFVRFGYQFDEVFDHRYFDLYNMHLCQG
MGSDKIHHHHHHMKSVTVADLKADPIVQGYIEVGNRNLAAIGFTEHGLRHVGLVSNIAYNILEKLGYSERECELAAVAAYLHDIGNVINRSGHAQTGALLSAHILERHAMAPEEIAIVIGAIGNHDESDGNPVSNISAALILADKSDVHRSRVRNQDPATFDIHDRVNYAVEHSFLRVYPKDRVALEITINTEICPVMDYFEIFLARMLLCRRAASFLDTVFELKINEVKLL
MGSDKIHHHHHHMKAILIDDDQPTLFILNKMLAKIPRVEIVGEFLNAGDAYHFLKHNPVELAFVDIKMPGESGLDFAWRSLAEFPDLYVVFLTAYKDYAVEAFEVQAFDYIVKPIQQERLERTVSRVLQRKAAGISSRNTVEQAKVLFVYCLGGLDLRNTNDDFVMISSSKGQELFAYLLVHRERLTSKWRIMEDVFQGMSPQNAETYLNTTVYKLRKVLEQYGKRSAIVVASESYVMEIKDFYIDFIEFENKVRTLPSITEANLQEAIQTFHLFAGELFGDKDYQWSLAEKERLGDIYCSFAKKLGRYLLENQNSALALQVFKKLVAINELDEESHCFLLQVYAAQNDLPSLIRHYDRYVQLLQRELAISPSNRTAQLFLSLKKSLL
ALYNVDAGHRAVIFDRFRGVQDIVVGEGTHFLIPWVQKPIIFDCRSRPRNVPVITGSKDLQNVNITLRILFRPVASQLPRIFTSIGEDYDERVLPSITTEILKSVVARFDAGELITQRELVSRQVSDDLTERAATFGLILDDVSLTHLTFGKEFTEAVEAKQVAQQEAERARFVVEKAEQQKKAAIISAEGDSKAAELIANSLATAGDGLIELRKLEAAEDIAYQLSRSRNITYLPAGQSVLLQLPQ
MGSDKIHHHHHHMARHALMRTELLPTFGMPDKKVDGFIARIRERHPKMIFGYPSAMSHIVPCAEQRGVRFDDLGIKVVFCTSERLYNHQRETIVRLFGCPVANGYGGRDAGFIAHECPNGNMHVITEDIVVEIIGEAGRVLPHRQSGKIVVTHLATRDYPFIRYRTGDIASLSEETCSCGRGLPLLTDIQGRNTDFVVAAEGTVLHGLALIYVVHDLNEVRTFKIVRKNREHTRILLAPEAGGDMTGIDTIIIDGFRCRLGAKVTVKFVDAVLAEKSGKFCYVASHVVLH
MAHHHHHHMLRLSFVHRKSRHQNVLRRGRPHMQKYRELNRWQRQAQGISKWDQSQSHRPLPYVERFNPEGVGVTRGTSAFAWQWWHTQQPWLPNVAPPNHTGRKITNTSGTTEETAKPPAWDEEFTSVVLSMTDSEIREYLLDKLTDVIFAETQRDGYELRRLDFEGNPLTELPERRIIESFVFEEETLRERVIYQVVEGVFRLSPTSADRRELRSVETIIDYVLTHVSAARPDSRPRVTPAALAVMQQCPLQPELGFVHALPVDSRDEILQEWERMHHLDWQFGKAVYVPRSREETRGNLTWLREERHNAERVEFMKRVASGEAKAEHMRRIAEAACTERPETMHG
MKLYIGNKNYSSWSLRAWLMVKKSGIKFDEILLQLDTDSFYQQLQSISPTLKVPTLVDGDITVWDSLSICEYINDSYLSGTAWPQDPKQKAKARSLACEMHSGFNALRNALPMNIRARRYVELSPAVQQDIARVDSIWSQQMAEFAPCQTQGTWLFGQWSIADMMFAPVVMRFFTYEIEVSQASRAYMEYIMSQPQMQAWITAAKAETEIVEADEAGVDR
MKRYVFMLSDGTGITAETLGNSLITQFENIQFEKITIPYIDSTHRAESVVLRINQCFSEQGTKPLVFMTLVDPEIRQAIKKAHACVFDLFSIFIGPLENELEEKSSYTVGRTHGVANVKSYSHRIEAIDFALSHDDGIKTRGYDKADIILIGVSRCGKTPSCLYMALQYGILAANYPFTEEDLVGFRLPEVLRPYKQKLFGLTIDAQRLQQIRSERRPNSKYASAEQCRLEVTEVEAMYQRENIPYINSTKYSIEEISTKVLAIAGLQRKILEHHHHHH
MHHRHLQVLRTDASGMPLEWIGYQEAAKLYYLEQVAYGCGSILFRLRGGINAKTGQRSRIEVNSIVATFGHANSGYKVDMGYVPPLNNAALFRRDGHICLYCGNLFRHSELSRDHIQPTSRGGSDTWNNVVTACKRCNNHKAGRTPEEAKMQLLAIPFTPTHAEYIYLQGRRVLADQMEFLKAHFPRKSPLHQRLSLEHHHHHH
MGSDKIHHHHHHMEPAELLKKIHQLPRLPKAVSELLEAVNNDQISIKDIAAKVSQDPLMSARVLRLANSSYFGANRKVASIDAAVVRLGMQTLRNLVIASAVVGAVPKAEGVDLGGFWGATFEVALYSQELAKHTHIPPEEAFTCGILHNIGDLFIATAAPDAAKAIDKAVMAGADKQETELKILDFDAATIGALLAQSWRFTDKLAAGIANQYQPKEAELYSDLAGLMYMAKALFSGWDEIEDDAITGWLSVQAMNAGLEMDMSDLAADLLKVKGSGLEMGQLLA
MTRHSAVRQAIIAALKKTDDGSTTFFDGRPVVVEEDELPAVAVYLSDAQYTGPEVDGDIWSAVLHVEVFLKATAPDSALDEQMENRVYPALGSVAGLGDIIRTMSAQGYNYQRDDEMAMWGSADLSYDITYSM
MIGYFIITGFAAATLALSTCNLKKVRKPPPATPAKPPAPQKTLKVAPRAAPPRKKKEIFLEEHTPPSTDTDEVSTIPPAEQIRIVENHRRRIGVRPRAGNRVYKKTPSSELVKVENKKSVEKNCKVVKTESGEAEACEKKEDKRNVEKNKKKEKESKEKSKNCYEKKELKKNGSESYAYKKYNKQKNEHIEILVKKTVLRQIRF

Soluble on expression in E. coli, soluble:
MIKYSIRGENLEVTEAIRDYVVSKLEKIEKYFQPEQELDARINLKVYREKTAKVEVTIPLGSITLRAEDVSQDMYGSIDLVTDKIERQIRKNKTKIERKNKNKVATGQLFTDALVEDSNIVQSKVVRSKQIDLKPMDLEEAILQMDLLGHDFFIYVDVEDQTTNVIYRREDGEIGLLEVKESAAALEHHHHHH
PNIADKGSVFYHFSATSFDSVDGTRHYRVWTAVPNTTAPASGYPILYMLDGNAVMDRLDDELLKQLSEKTPPVIVAVGYQTNLPFDLNSRAYDYTPAAESRKTDLHSGRFSRKSGGSNNFRQLLETRIAPKVEQGLNIDRQRRGLWGHSYGGLFVLDSWLSSSYFRSYYSASPSLGRGYDALLSRVTAVEPLQFCTKHLAIMEGSATQGDNRETHAVGVLSKIHTTLTILKDKGVNAVFWDFPNLGHGPMFNASFRQALLDISGENANYTAGCHELSH
SAQNVYGPGVRIGNWNEDVYLEEELMKDFLEKRDKGKLLIQRSRRLKQNLLRPMQLSVTEDGYIHYGDKVMLVNPDDPDTEADVFLRGDLSLCMTPDEIQSHLKDELEVPCGLSAVQAKTPIGRNTFIILSVHRDATGQVLRYGQDFCLGITGGFDNKMLYLSSDHRTLLKSSKRSWLQEVYLTDEVSHVNCWQAAFPDPQLRLEYEGFPVPANAKILINHCHTNRGLAAHRHLFLSTYFGKEAEVVAHTYLDSHRVEKPRNHWMLVTGNPRDASSSMLDLPKPPTEDTRAMEQAMGLDTQ
GWQAFKNDATEIIPELGEYPEPPPELENNKTMNRAENGGRPPHHPFETKDVSEYSCRELHFTRYVTDGPCRSAKPVTELVCSGQCGPARLLPNAIGRGKWWRPSGPDFRCIPDRYRAQRVQLLCPGGEAPRARKVRLVASCKCKRLTRFHNQSELKDFGTEAARPQKGRKPRPRARSAKANQAELENAY
MKKHHHHHHLVPRGSIPHLILELLKCEPDEPQVQAKIMAYLQQEQANRSKHEKLSTFGLMCKMADQTLFSIVEWARSSIFFRELKVDDQMKLLQNCWSELLILDHIYRQVVHGKEGSIFLVTGQQVDYSIIASQAGATLNNLMSHAQELVAKLRSLQFDQREFVCLKFLVLFSLDVKNLENFQLVEGVQEQVNAALLDYTMCNYPQQTEKFGQLLLRLPEIRAISMQAEEYLYYKHLNGDVPYNNLLIEMLHAKRA

— the DeepSol protein solubility set
